Laboratory results as given in PMC5799254, “Target identification of small molecules using large-scale CRISPR-Cas mutagenesis scanning of essential genes” (Nature Communications, 2018).

Target: the molecule itself
Assay: crystal structure; co-crystal of NAMPT (10 mg/mL) with a 5-fold excess of KPT-9274; hanging drops, 20 °C, reservoir 0.2 M NaCl, 0.1 M Tris pH 8.5, 22% PEG 3350

B1: nicotinamide phosphoribosyltransferase (NAMPT) (enzyme, human, UniProt P43490 1-491, looked up)
chain: MNPAAEAEFNILLATDSYKVTHYKQYPPNTSKVYSYFECREKKTENSKLRKVKYEETVFYGLQYILNKYLKGKVVTKEKIQEAKDVYKEHFQDDVFNEKGWNYILEKYDGHLPIEIKAVPEGFVIPRGNVLFTVENTDPECYWLTNWIETILVQSWYPITVATNSREQKKILAKYLLETSGNLDGLEYKLHDFGYRGVSSQETAGIGASAHLVNFKGTDTVAGLALIKKYYGTKDPVPGYSVPAAEHSTITAWGKDHEKDAFEHIVTQFSSVPVSVVSDSYDIYNACEKIWGEDLRHLIVSRSTQAPLIIRPDSGNPLDTVLKVLEILGKKFPVTENSKGYKLLPPYLRVIQGDGVDINTLQEIVEGMKQKMWSIENIAFGSGGGLLQKLTRDLLNCSFKCSYVVTNGLGINVFKDPVADPNKRSKKGRLSLHRTPAGNFVTLEEGKGDLEEYGQDLLHTVFKNGKVTKSYSFDEIRKNAQLNIELEAAHH
notes: nicotinamide phosphoribosyltransferase (NAMPT, NMPRTase), human, full length; also called NMPRTase
stoichiometry N: 2
